Assay results published in paper PMC6555819, “Comprehensive study of nuclear receptor DNA binding provides a revised framework for understanding receptor specificity”.

B1: NRC3_wobSeed73_DR3_G26C_o1 (dsDNA)
DNA 1: GCCAAACTAGGTCACAGAGGTCAAACTCCGTGCGTAGCGATTGACAGCGTAGAATGAAGG
DNA 2: CCTTCATTCTACGCTGTCAATCGCTACGCACGGAGTTTGACCTCTGTGACCTAGTTTGGC
B2: NRC3_wobSeed29_DR1_T22C_o1 (dsDNA)
DNA 1: GCGCTTACGGGTCAAAGGTTACAGCATGAATAGAATGCGATTGACAGCGTAGAATGAAGG
DNA 2: CCTTCATTCTACGCTGTCAATCGCATTCTATTCATGCTGTAACCTTTGACCCGTAAGCGC
B3: NRC3_wobSeed134_DR5_T8G_o1 (dsDNA)
DNA 1: GCGCTGCGAGGTCAACTGATGGTCAGCTAAAGCTCGGCGATTGACAGCGTAGAATGAAGG
DNA 2: CCTTCATTCTACGCTGTCAATCGCCGAGCTTTAGCTGACCATCAGTTGACCTCGCAGCGC
B4: NRC3_random_hg19_320_o1 (dsDNA)
DNA 1: GCCACACTTGCAGAGGAGAAAGGAGTTTGGAAAGCCGCGATTGACAGCGTAGAATGAAGG
DNA 2: CCTTCATTCTACGCTGTCAATCGCGGCTTTCCAAACTCCTTTCTCCTCTGCAAGTGTGGC
B5: NRC3_wobSeed46_DR1_G13T_o1 (dsDNA)
DNA 1: GCTTACCAAGGTTAAAGGTCGTTGATGCACGCCTTGGCGATTGACAGCGTAGAATGAAGG
DNA 2: CCTTCATTCTACGCTGTCAATCGCCAAGGCGTGCATCAACGACCTTTAACCTTGGTAAGC
B6: NRC3_wobSeed23_DR0_G12T_o1 (dsDNA)
DNA 1: GCGGAACGAGGTCAAGTTGATAGCAGAGTTTGATGGGCGATTGACAGCGTAGAATGAAGG
DNA 2: CCTTCATTCTACGCTGTCAATCGCCCATCAAACTCTGCTATCAACTTGACCTCGTTCCGC
B7: NRC3_wobSeed49_DR2_C7G_o1 (dsDNA)
DNA 1: GCCAAAGTAGGTCAAGAGGTCAAAGTCCGCTTCCCGGCGATTGACAGCGTAGAATGAAGG
DNA 2: CCTTCATTCTACGCTGTCAATCGCCGGGAAGCGGACTTTGACCTCTTGACCTACTTTGGC
B8: NRC3_wobSeed26_DR1_T8C_o1 (dsDNA)
DNA 1: GCTCTAGCTGGTCAAAGGTCACACACTCGAAATGCGGCGATTGACAGCGTAGAATGAAGG
DNA 2: CCTTCATTCTACGCTGTCAATCGCCGCATTTCGAGTGTGTGACCTTTGACCAGCTAGAGC
B9: NRC3_wobSeed22_DR0_G13C_o1 (dsDNA)
DNA 1: GCTTACCAAGGTCAAGGTCGTTGATCCCTCTGTAGAGCGATTGACAGCGTAGAATGAAGG
DNA 2: CCTTCATTCTACGCTGTCAATCGCTCTACAGAGGGATCAACGACCTTGACCTTGGTAAGC
B10: NRC3_random_hg19_369_o1 (dsDNA)
DNA 1: GCCAACCCTCTTTCATGTCTGTAAGGAGCTTACCTGGCGATTGACAGCGTAGAATGAAGG
DNA 2: CCTTCATTCTACGCTGTCAATCGCCAGGTAAGCTCCTTACAGACATGAAAGAGGGTTGGC
B11: NRC3_wobSeed97_DR4_T28C_o1 (dsDNA)
DNA 1: GCCAAACTAGGTCACGAAAGGTCAAAGCCGAATGACGCGATTGACAGCGTAGAATGAAGG
DNA 2: CCTTCATTCTACGCTGTCAATCGCGTCATTCGGCTTTGACCTTTCGTGACCTAGTTTGGC
B12: NRC3_wobSeed13_DR0_A15C_o1 (dsDNA)
DNA 1: GCCGTCCAAGGTCACGGTCAGTGAAAGAGACTCGAAGCGATTGACAGCGTAGAATGAAGG
DNA 2: CCTTCATTCTACGCTGTCAATCGCTTCGAGTCTCTTTCACTGACCGTGACCTTGGACGGC

Legend:
[1] = target: RXRa (Homo sapiens, UniProt P19793); experiment: no ligand; PBM; 180 nM; PBS pH 7.4, 2% milk, 0.02% Triton X-100, 1 mM DTT, BSA, 0.4 mg/ml salmon testes DNA; conditions: tags: His cleaved; chain copies: 2; label: surface-attached array probe
Chain of RXRa (P19793 whole entry): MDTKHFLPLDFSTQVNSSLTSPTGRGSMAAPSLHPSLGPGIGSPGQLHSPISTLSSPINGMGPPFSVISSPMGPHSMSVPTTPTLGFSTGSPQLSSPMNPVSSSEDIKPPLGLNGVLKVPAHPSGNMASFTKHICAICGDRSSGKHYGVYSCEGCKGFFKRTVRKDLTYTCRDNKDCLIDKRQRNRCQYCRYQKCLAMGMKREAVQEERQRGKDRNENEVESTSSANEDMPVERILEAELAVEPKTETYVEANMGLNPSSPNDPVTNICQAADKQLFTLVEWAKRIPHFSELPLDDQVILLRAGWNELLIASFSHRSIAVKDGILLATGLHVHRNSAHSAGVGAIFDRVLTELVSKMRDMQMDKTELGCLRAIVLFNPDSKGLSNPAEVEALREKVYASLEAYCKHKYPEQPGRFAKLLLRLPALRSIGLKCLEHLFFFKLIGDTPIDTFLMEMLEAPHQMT

[2] = target: RARb:RXRa (Homo sapiens, UniProt P10826;P19793 full;full); experiment: no ligand; PBM; 270 nM : 90 nM RXRa; PBS pH 7.4, 2% milk, 0.02% Triton X-100, 1 mM DTT, BSA, 0.4 mg/ml salmon testes DNA; conditions: tags: His kept;His cleaved; copies: 1;1; label: surface-attached array probe
Chain of RARb:RXRa (P10826 whole entry, chain 1 of 2): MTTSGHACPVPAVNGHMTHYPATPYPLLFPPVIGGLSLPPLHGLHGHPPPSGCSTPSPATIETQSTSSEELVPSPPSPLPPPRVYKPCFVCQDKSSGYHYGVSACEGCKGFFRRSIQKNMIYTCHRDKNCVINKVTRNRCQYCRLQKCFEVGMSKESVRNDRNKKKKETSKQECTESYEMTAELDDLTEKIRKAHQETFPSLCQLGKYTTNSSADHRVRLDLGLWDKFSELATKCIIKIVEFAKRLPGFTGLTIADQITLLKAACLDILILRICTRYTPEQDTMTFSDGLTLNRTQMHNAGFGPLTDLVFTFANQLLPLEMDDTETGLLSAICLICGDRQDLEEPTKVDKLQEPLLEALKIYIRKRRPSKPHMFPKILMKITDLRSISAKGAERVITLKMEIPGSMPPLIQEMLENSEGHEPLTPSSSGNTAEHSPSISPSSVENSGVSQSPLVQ
Chain of RARb:RXRa (P19793 whole entry, chain 2 of 2): as the sequence (P19793 whole entry) above
How it was run: (§1)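 Antibodies against each partner of ligand-free nuclear receptor dimers (one per run) detected binding on custom Agilent 4×180K protein-binding microarrays after 1 h incubation. The double-stranded probes had 34-nt variable regions carrying direct-repeat seeds, single-nucleotide variants, half-site ablations and random human genomic background sequences. Binding z-scores, from regression-normalized fluorescence, use the random background probes as reference.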

[3] = target: FXR:RXRa (Homo sapiens, UniProt Q96RI1;P19793 full;full); experiment: as above; conditions: tags: His kept;His cleaved; copies: 1;1; label: surface-attached array probe
Chain of FXR:RXRa (Q96RI1 whole entry, chain 1 of 2): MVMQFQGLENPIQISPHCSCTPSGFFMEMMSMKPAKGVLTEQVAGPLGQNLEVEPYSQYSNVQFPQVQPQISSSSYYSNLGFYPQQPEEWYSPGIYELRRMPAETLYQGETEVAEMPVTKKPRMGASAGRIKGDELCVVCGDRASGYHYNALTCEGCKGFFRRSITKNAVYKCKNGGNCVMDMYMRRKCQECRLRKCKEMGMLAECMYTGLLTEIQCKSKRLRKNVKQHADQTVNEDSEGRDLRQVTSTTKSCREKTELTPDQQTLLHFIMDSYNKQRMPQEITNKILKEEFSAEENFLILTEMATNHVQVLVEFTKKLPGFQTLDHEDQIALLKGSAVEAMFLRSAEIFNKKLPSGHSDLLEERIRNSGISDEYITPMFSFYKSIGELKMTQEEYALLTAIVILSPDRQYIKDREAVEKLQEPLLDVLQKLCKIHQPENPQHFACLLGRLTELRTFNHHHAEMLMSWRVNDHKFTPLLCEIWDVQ
Chain of FXR:RXRa (P19793 whole entry, chain 2 of 2): as the sequence (P19793 whole entry) above
How it was run: as §1

[4] = target: RARg:RXRa (Homo sapiens, UniProt P13631;P19793 full;full); experiment: as above; conditions: tags: His kept;His cleaved; copies: 1;1; label: surface-attached array probe
Chain of RARg:RXRa (P13631 whole entry, chain 1 of 2): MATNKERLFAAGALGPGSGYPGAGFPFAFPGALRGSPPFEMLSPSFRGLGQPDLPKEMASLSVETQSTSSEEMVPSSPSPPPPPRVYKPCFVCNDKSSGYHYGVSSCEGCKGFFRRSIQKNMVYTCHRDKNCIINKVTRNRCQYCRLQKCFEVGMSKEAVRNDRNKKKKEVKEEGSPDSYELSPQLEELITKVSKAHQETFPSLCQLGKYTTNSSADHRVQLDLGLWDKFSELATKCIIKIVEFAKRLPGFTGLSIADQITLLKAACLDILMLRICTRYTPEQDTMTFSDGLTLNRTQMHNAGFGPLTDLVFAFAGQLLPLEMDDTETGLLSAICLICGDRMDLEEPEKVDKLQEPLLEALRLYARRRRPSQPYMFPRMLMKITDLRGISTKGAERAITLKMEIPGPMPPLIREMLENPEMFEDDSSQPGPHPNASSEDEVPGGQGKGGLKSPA
Chain of RARg:RXRa (P19793 whole entry, chain 2 of 2): as the sequence (P19793 whole entry) above
How it was run: as §1

[5] = target: PPARa:RXRa (Homo sapiens, UniProt Q07869;P19793 full;full); experiment: as above; conditions: tags: GST kept;His cleaved; copies: 1;1; label: surface-attached array probe
Chain of PPARa:RXRa (Q07869 whole entry, chain 1 of 2): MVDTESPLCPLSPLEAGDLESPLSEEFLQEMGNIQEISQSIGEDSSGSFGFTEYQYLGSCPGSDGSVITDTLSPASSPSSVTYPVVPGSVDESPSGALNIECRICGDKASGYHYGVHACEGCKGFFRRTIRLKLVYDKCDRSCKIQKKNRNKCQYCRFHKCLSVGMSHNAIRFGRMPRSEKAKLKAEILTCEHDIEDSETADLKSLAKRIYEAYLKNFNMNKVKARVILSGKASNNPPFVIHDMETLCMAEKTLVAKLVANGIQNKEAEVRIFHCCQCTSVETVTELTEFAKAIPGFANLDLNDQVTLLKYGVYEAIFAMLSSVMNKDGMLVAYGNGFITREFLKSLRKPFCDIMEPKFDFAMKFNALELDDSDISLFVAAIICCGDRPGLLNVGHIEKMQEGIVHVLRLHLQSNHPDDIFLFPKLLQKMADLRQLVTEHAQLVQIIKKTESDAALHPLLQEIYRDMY
Chain of PPARa:RXRa (P19793 whole entry, chain 2 of 2): as the sequence (P19793 whole entry) above
How it was run: as §1

Row | Binder | binding signal [1] | binding signal [2] | binding signal [3] | binding signal [4] | binding signal [5]
1 | B1 | 8.89 PBM z-score against 500 random probes |  |  |  | 
2 | B2 | 9.84 PBM z-score against 500 random probes |  |  |  | 
3 | B3 |  | 5.49 PBM z-score against 500 random probes | 7.7 PBM z-score against 500 random probes | 7.43 PBM z-score against 500 random probes | 
4 | B4 |  | -0.07 PBM z-score against 500 random probes | 0.28 PBM z-score against 500 random probes |  | -0.22 PBM z-score against 500 random probes
5 | B5 | 7.99 PBM z-score against 500 random probes |  |  |  | 
6 | B6 |  | 5.45 PBM z-score against 500 random probes | 8.18 PBM z-score against 500 random probes |  | 
7 | B7 | 8.95 PBM z-score against 500 random probes |  |  |  | 
8 | B8 | 8.94 PBM z-score against 500 random probes |  |  |  | 
9 | B9 |  | 5.5 PBM z-score against 500 random probes | 7.79 PBM z-score against 500 random probes |  | 
10 | B10 |  | 0.12 PBM z-score against 500 random probes | 0.38 PBM z-score against 500 random probes | -0.32 PBM z-score against 500 random probes | 
11 | B11 | 8.92 PBM z-score against 500 random probes |  |  |  | 
12 | B12 |  | 5.97 PBM z-score against 500 random probes | 8.3 PBM z-score against 500 random probes |  | 
